Series [1] addresses T1, rHJ5Nag (Microbacterium sp. HJ5, UniProt A0A1W6AQA7).
T1 construct: pEASY-E2 in E. coli BL21 (DE3), purified on Ni-NTA
T1 sequence (A0A1W6AQA7 21-535): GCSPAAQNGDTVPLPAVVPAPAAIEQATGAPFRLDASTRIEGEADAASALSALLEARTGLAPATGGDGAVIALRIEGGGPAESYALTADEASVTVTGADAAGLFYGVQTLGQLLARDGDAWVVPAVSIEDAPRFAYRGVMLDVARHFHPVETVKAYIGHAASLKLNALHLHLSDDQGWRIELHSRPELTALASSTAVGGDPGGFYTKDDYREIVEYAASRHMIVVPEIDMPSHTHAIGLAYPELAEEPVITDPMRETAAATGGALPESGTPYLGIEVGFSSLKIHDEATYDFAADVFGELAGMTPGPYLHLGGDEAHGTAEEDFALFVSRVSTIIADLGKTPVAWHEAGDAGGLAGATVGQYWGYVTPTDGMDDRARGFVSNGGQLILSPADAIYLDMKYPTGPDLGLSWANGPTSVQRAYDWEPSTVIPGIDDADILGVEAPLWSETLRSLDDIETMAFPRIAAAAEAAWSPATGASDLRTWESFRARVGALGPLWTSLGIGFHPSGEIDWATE
In words: pNP release assay, nonlinear mixed-model inhibition fit. Format: biochemical. Conditions: 0.1-1.2 mM pNPGlcNAc; pH 6.0; 45 °C; mixed competitive and noncompetitive inhibition (alpha 3.412); product inhibitor at 5.0 and 10.0 mM.

Substrate in series [2]: CC(=O)N[C@H]1[C@H](Oc2ccc([N+](=O)[O-])cc2)O[C@H](CO)[C@@H](O)[C@@H]1O
In words: pNP release assay, nonlinear Michaelis-Menten fit. Format: biochemical, Microbacterium sp. HJ5. Conditions: pH 6.0, 45 °C, McIlvaine buffer, without added GlcNAc.

We go through two molecules from PMC5387316, “Distinctive molecular and biochemical characteristics of a glycoside hydrolase family 20 β-N-acetylglucosaminidase and salt tolerance” (BMC Biotechnology, 2017).

Usually Ki stands for a measure of affinity in units of concentration, obtained from inhibition or displacement. On to `CC(=O)N[C@H]1C(O)O[C@H](CO)[C@@H](O)[C@@H]1O` (stereo partly drawn) [N-acetylglucosamine], for which the Ki in series [1] turned out to be 14.6 mM.

B1: rHJ5Nag (Microbacterium sp. HJ5) (protein)
chain: GCSPAAQNGDTVPLPAVVPAPAAIEQATGAPFRLDASTRIEGEADAASALSALLEARTGLAPATGGDGAVIALRIEGGGPAESYALTADEASVTVTGADAAGLFYGVQTLGQLLARDGDAWVVPAVSIEDAPRFAYRGVMLDVARHFHPVETVKAYIGHAASLKLNALHLHLSDDQGWRIELHSRPELTALASSTAVGGDPGGFYTKDDYREIVEYAASRHMIVVPEIDMPSHTHAIGLAYPELAEEPVITDPMRETAAATGGALPESGTPYLGIEVGFSSLKIHDEATYDFAADVFGELAGMTPGPYLHLGGDEAHGTAEEDFALFVSRVSTIIADLGKTPVAWHEAGDAGGLAGATVGQYWGYVTPTDGMDDRARGFVSNGGQLILSPADAIYLDMKYPTGPDLGLSWANGPTSVQRAYDWEPSTVIPGIDDADILGVEAPLWSETLRSLDDIETMAFPRIAAAAEAAWSPATGASDLRTWESFRARVGALGPLWTSLGIGFHPSGEIDWATE
notes: pEASY-E2 in E. coli BL21 (DE3), purified on Ni-NTA
A word on the Km: it is the substrate concentration at which the rate is half of its maximum. As a reminder, the kcat is the number of substrate molecules converted per active site and unit of time at saturation. As to B1, in series [2], the Km was 520 ± 50 µM and the kcat came to 2886 ± 116 s⁻¹.
